Experimental data taken from US20240102021A1.

Target: MC1R (endogenous, MNT-1 cells) (human) (UniProt Q01726)
Assay: cell-based or functional assay

Chain of UniProt Q01726 (Q01726 whole entry): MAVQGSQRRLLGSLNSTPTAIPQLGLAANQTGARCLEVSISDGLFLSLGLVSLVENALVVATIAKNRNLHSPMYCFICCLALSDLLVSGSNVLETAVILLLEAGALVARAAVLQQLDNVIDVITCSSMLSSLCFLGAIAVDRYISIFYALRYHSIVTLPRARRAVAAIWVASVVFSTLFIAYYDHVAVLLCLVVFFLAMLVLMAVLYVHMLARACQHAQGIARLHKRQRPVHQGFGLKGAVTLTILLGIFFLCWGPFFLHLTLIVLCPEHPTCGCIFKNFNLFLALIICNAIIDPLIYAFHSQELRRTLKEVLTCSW

| increase in cellular cAMP (Epac H187 FRET ratio CFP/YFP, normalized to FSK+IBMX), control MCh-expressing MNT-1 cells [%] | increase in cellular cAMP on αMSH stimulation (Epac H187 FRET, normalized to FSK+IBMX), MNT-1 cells expressing OPN3-MCh [%] | Substance |
| --- | --- | --- |
| 50 | – | NDP-αMSH (peptide) |
| – | 10 | OPN3-cMCh (from UniProt Q9H1Y3 1-402) (receptor) |
